Data published in patent US20190092852A1 (Genentech, published 2019).
“And” between values parts separate entries of the source, which are not always exact repeats. Equal entries are not always repeated.

B1: 10C12 (antibody, V domains shown)
VH: DVNLVESGGGSVKPGGSLKLSCVASGFTFSSFSMSWVRQTPEKRLEWVATISGGKTFTDYVDSVKGRFTISRDDAKNTLYLQMSSLESEDTAMYYCTRANYGNWFFEVWGAGTTVAVSS
VL: DIVLTQSPGFLVVSLGQRATISCRASESVAKYGLSLLNWFQQKPGQPPKLLIFAASNRGSGVPARFSGSGSGTDFSLNIHPMEEDDTAMYFCQQSKEVPFTFGSGTKLEIK
notes: Murine hybridoma clone from IL33 KO mouse
B2: 10C12.38.H6.87Y.58I (antibody, V domains shown)
VH: EVQLVESGGGLVQPGGSLRLSCAASGFTFSSFSMSWVRQAPGKGLEWVATISGGKTFTDYVDSVKGRFTISRDDSKNTLYLQMNSLRAEDTAVYYCTRANYGNWFFEVWGQGTLVTVSS
VL: EIVLTQSPATLSLSPGERATLSCRASESVAKYGLSLLNWFQQKPGQPPRLLIFAASNRGSGIPARFSGSGSGTDFTLTISSLEPEDFAVYYCQQSKEVPFTFGQGTKVEIK
B3: 6C11 (antibody, V domains shown)
VH: EVKLEESGGGLVQPGGSMKLSCVASGFTFNKFWMNWVRQSPEKGLEWVAEIRLNSINYVKDYAESVKGRFTISRDDSKNSVYLQMNNLRAEDTGIYYCIRRNYGNWFFEIWGAGTTVTVSS
VL: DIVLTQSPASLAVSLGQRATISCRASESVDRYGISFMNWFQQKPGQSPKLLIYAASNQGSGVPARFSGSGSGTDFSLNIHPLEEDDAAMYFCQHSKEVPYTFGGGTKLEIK
notes: Murine hybridoma clone (Balb/C)
B4: 10H2 (antibody, V domains shown)
VH: EVKLEESGGGLVQPGGSMKLSCVASGFTFSNYWMNWVRQSPEKGLEWMAEITLKFNNYSTHYAESVKGRFSISRDDSKSTVYLQMNNLRAEDTGIYYCARRNYGDWYINVWGAGTTVTVSS
VL: DIVLTQSPTSLAVSLGQRATISCRASESVDKFGMSFLNWFQQKPGQPPKLLIFVASSQGSGVPARFSGSGSGTDFSLNIHPVEEDDTAMYFCQQSKDIPYTFGGGTKLEIK
notes: as for B3
B5: 9F6 (antibody, V domains shown)
VH: QVQLQQSGNDLVKPGASVKLSCKASGYTFTSYWINWIKQRPGQGLEWIGRIAPGSGFISYNELFKDKATLTVDTSSSTAYIQLGSLSSEDSAVYFCAREFYYGSFYGGFAYWGQGTLVTVSA
VL: DIQMNQSPSSLSASLGDTITITCHASQNIHVWLSWYQQKPGNIPKLLIYKASTLHTGVPSRFNGSGSGTGFTLTISSLQPEDIATYYCQQGQSSPLTFGAGTKLEVK
notes: as for B3
B6: 4G12.FW4 (antibody, V domains shown)
VH: ELQLQESGPGLVKPSETLSLTCTVSGGSIRSSIFYWGWIRQPPGKGLEWIGSIYYSGRTYYNPSLKSRVTISVDTSKNQFSLMLTSVTAADTAVYYCARAGGLYNWNDESFSFYMDVWGQGTTVTVSS
VL: EIVLTQSPGTLSLSPGERATLSCRASQSFSSSYLAWYQQKPGQAPRLLIYGASSRATGIPDRFSGSGSGTDFTLTISRLEPEDFAVYYCQQYDRSPLTFGGGTKVEIK
notes: Derivative of 4G12
B7: 2B6 (antibody, V domains shown)
VH: EVLLQQSGPELVKPGASVKISCNASGYTFSDYNMNWVKQSHGKSLESIGDINPKNGDTFYNQNFKDKATLTIDKSSSTVYMELRSLTSEDTAMYYCARHYYYGSSYGGFVYWGQGTLVTVAA
VL: DIQMNQSPSSLSASLGDTITITCHASQNINVWLSWYQQKAGNNPKLLIYAASKLHTGVPSRFTGSGSGTLFTLTISSLQPEDIATYYCQQGQSYPLTFGSGTNLELK
notes: as for B3
B8: 101.B11 (antibody, V domains shown)
VH: QVQLVQSGGGLVQPGGSLKLSCAASGFTFSGSAMHWVRQASGKGLEWVGRIRSRNNNYATAYAASVKGRFTISRDDSKRTTYLQMNSLKTEDTAVYYCTRLQQPPFDYWGQGTLVTVSS
VL: DIQMTQSPSSLSASVGDRVTITCRASQGIRNDLDWYQQKPGKAPKRLIYAASSLQSGVPSRFNGSGSGTEFTLTISSLQPEDFATYYCLQHDSYPLTFGGGTKVEIK
notes: Transgenic mouse / phage display

What follows are binders tested against T1, cyno IL-33 (cell-based blocking assay of Example 2) (cynomolgus monkey, UniProt A0A2K5W3I1 95-269) (assay: cell-based or functional assay).
T1 sequence: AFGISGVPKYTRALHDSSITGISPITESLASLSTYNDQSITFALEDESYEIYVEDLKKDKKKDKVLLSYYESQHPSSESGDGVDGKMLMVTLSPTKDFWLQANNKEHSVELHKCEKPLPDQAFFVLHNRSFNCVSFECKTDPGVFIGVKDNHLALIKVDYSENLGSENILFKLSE

Binder | IC50 (HEK-BLUE SEAP reporter, IL-33 blocking) | IC90 (HEK-BLUE SEAP reporter, IL-33 blocking)
B1 | 0.142 nM | 1290 pM and 0.193 µg/mL
B2 | 0.181 nM | 1220 pM and 0.183 µg/mL
B3 | > 10 nM | > 10000 pM and > 1.5 µg/mL
B4 | 0.0174 nM | 271 pM and 0.0407 µg/mL

What follows are binders tested against T2, human IL-33 (cell-based blocking assay of Example 2) (human, UniProt O95760 112-270) (assay: cell-based or functional assay).
T2 sequence (looked up): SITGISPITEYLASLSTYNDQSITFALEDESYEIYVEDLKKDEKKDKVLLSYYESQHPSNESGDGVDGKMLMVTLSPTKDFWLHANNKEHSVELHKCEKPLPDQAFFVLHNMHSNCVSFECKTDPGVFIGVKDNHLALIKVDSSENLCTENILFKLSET

Binder | IC50 (HEK-BLUE SEAP reporter, IL-33 blocking) | IC90 (HEK-BLUE SEAP reporter, IL-33 blocking)
B1 | 0.0039 nM | 18.2 pM and 0.0027 µg/mL
B2 | 0.002 nM | 20.5 pM and 0.0031 µg/mL
B3 | 0.0213 nM | 120 pM and 0.0181 µg/mL
B4 | 0.0053 nM | 31 pM and 0.0047 µg/mL

Biological target: T1, cyno IL-33 (cell-based blocking assay …)
Experiment: cell-based or functional assay
Remark: another data set of the same source

Binder | Cell assay (cy) IC90
B5 | > 1.5 µg/mL and > 9.9 nM
B6 | 0.034 µg/mL and 0.224 nM
B7 | 0.526 µg/mL and 3.47 nM
B1 | 0.193 µg/mL and 1.27 nM
B2 | 0.185 µg/mL and 1.22 nM
B3 | > 1.5 µg/mL and > 9.9 nM
B4 | 0.041 µg/mL and 0.27 nM

Biological target: T2, human IL-33 (cell-based blocking assay …)
Experiment: cell-based or functional assay
Remark: another data set of the same source

Binder | Cell assay (hu) IC90
B8 | 0.3 µg/mL
B5 | 0.011 µg/mL and 0.73 nM
B6 | 0.17 µg/mL and 1.12 nM
B7 | 0.02 µg/mL and 0.13 nM
B1 | 0.002 µg/mL and 0.013 nM
B2 | 0.004 µg/mL and 0.026 nM
B3 | 0.021 µg/mL and 0.14 nM
B4 | 0.003 µg/mL and 0.02 nM

The binders below were run against T3, cyno IL-33 (construct not stated) (cynomolgus monkey, UniProt A0A2K5W3I1 112-269) (assay: SPR Biacore).
T3 construct: also called cynomolgus IL-33; cyno IL-33 (Genentech)
T3 sequence: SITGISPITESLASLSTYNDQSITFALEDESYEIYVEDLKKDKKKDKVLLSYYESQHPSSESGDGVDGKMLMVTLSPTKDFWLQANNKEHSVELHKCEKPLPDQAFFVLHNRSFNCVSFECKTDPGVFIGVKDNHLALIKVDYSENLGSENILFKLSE

Binder | Kd
B8 | 0.783 nM
B5 | 0.91 nM
B6 | 0.07 nM
B7 | 0.33 nM
B1 | 0.07 nM
B2 | 0.037 nM
B3 | 0.79 nM
B4 | 0.09 nM

Each binder was assayed against T4, human IL-33 (Genentech, huIL33.his) (human, UniProt O95760 112-270) (assay: SPR Biacore).
T4 sequence (looked up): T2 sequence (looked up)

Binder | Kd
B8 | 0.527 nM
B5 | 0.07 nM
B6 | 0.038 nM
B7 | 0.03 nM
B1 | ≤ 0.007 nM
B2 | 0.015 nM
B3 | 0.06 nM
B4 | 0.06 nM
